Measured values taken from patent publication US20170349667A1.

Molecular target: human c-Met on cells (MKN-45, A549, HPAF, BxPC3) (human) (UniProt P08581)
Experiment: cell-based or functional assay

Chain of human c-Met on cells (MKN-45, A549, HPAF, BxPC3) (human) (P08581 25-1390): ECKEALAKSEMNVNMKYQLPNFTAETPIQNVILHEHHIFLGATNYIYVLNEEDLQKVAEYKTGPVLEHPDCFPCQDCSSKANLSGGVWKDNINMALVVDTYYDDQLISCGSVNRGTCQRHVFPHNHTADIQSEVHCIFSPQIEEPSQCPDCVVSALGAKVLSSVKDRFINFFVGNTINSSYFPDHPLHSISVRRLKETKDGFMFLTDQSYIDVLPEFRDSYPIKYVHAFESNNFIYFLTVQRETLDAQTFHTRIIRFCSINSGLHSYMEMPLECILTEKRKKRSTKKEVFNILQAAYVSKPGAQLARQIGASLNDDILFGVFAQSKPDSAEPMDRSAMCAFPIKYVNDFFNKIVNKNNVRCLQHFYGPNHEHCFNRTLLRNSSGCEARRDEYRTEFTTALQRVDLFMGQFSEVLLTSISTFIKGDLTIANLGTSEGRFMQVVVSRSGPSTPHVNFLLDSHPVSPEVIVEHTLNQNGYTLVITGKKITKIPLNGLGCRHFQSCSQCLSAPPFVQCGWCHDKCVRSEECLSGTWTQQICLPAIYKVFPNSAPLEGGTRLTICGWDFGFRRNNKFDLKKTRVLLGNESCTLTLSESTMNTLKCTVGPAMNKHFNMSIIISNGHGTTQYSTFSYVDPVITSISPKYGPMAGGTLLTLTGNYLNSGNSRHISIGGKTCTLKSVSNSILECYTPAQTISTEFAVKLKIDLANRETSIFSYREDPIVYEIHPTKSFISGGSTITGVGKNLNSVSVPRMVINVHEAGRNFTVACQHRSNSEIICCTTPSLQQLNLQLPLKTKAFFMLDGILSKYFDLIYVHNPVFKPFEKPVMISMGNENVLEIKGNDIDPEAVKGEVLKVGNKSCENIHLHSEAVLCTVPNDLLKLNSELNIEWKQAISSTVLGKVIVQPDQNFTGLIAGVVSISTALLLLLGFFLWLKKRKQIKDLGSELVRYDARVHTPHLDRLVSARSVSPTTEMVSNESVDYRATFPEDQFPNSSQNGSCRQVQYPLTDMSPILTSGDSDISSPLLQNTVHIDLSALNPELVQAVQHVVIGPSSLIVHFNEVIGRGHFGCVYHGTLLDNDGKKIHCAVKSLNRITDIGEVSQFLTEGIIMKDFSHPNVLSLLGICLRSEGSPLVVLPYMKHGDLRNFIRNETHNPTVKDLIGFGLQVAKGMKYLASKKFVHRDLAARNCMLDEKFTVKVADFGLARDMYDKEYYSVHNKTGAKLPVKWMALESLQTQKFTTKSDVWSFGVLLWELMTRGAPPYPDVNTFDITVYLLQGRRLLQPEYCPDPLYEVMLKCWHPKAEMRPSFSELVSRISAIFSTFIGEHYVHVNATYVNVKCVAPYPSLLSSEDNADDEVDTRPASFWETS

down-regulation of total c-Met on the surface of MKN-45 cells: 50 to 60%
Substance: murine 5D5 antibody
